Reference: patent publication US20180321243A1 (UNIVERSITY OF SASKATCHEWAN, published 2018)

Experiments:
[1] = target: T1, recombinant human ADAM10 (Biomatik, #RPU140010) (human, UniProt O14672 214-672, limits assumed); test: phage ELISA, ADAM10 signal over BSA signal
T1 construct: The source and catalogue number are printed for the phage display selections only; also called purified human ADAM10; Disintegrin and metalloproteinase domain-containing protein 10
T1 sequence (looked up): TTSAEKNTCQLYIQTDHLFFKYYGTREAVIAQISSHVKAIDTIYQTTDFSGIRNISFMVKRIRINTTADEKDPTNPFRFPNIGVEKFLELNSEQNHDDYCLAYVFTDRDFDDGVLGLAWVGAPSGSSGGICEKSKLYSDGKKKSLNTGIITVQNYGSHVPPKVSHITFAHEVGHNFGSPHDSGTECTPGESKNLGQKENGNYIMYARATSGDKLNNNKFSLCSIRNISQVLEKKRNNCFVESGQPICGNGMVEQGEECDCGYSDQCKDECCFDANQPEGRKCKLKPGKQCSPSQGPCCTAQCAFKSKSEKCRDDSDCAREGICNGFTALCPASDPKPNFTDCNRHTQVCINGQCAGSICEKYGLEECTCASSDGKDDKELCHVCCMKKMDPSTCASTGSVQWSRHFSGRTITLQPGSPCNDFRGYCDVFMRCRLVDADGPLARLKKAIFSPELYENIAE
Protocol: (§1) A phage-based ELISA was performed as a semi-quantitative approach to initially validate scFv binding to ADAM10. ADAM10 was adsorbed to ELISA plates and purified phage displaying each of the scFv clones was tested for a binding signal compared to a negative control bovine serum albumin (BSA) protein.
(§2) Similar to the phage display screening methodology, ADAM10 was adsorbed to NUNC MaxiSorp Immunoplates and subsequently incubated with ˜10¹² purified phage displaying an scFv clone. An anti-phage-horseradish peroxidase secondary antibody was then used to generate binding signals for each clone in duplicate, which was measured by colour development at an optical density of 450 nm (O.D. 450 nm) using a tetramethylbenzidine substrate (ThermoScientific, #34028).

[2] = target: T2, bovine serum albumin (BSA) (bovine, UniProt P02769 25-607); test: phage ELISA, scFv displayed on M13 phage, BSA negative control, duplicate 1
T2 construct: Negative control / background protein in the phage ELISA
Protocol: as §1, §2

[3] = target: T2, bovine serum albumin (BSA); test: phage ELISA, scFv displayed on M13 phage, BSA negative control, duplicate 2
Protocol: as §1, §2

[4] = target: T1, recombinant human ADAM10 (Biomatik, …); test: BLI (Octet RED384), unlabeled scFv coupled to AR2G biosensors, ADAM10 at 500 and 166 nM, global fit
Protocol: (§3) BLI sensorgrams for scFv-B2 (A), scFv-B7 (B), and scFv-B9 (C) show real-time binding curves in nanometers of optical thickness versus time (sec). […] A global best fit (solid red line) for each curve was calculated by ForteBio Data Anaylsis 7.1 software and used to determine the kinetic parameters in Table 5.
(§4) Biolayer interferometry was performed with an Octet RED384 instrument (ForteBio). The initial kinetics with unlabeled scFv was performed through coupling to AR2G biosensors per manufacturer instructions (ForteBio). These biosensors were then dipped into ADAM10 (500 nM and 166 nM) to generate the association curves, after which the sensors were moved into buffer alone to generate the corresponding dissociation curves. ForteBio Data Analysis 7.0 software was used for global curve fitting to generate the kinetic data. The kinetic analysis for biotin-conjugated scFvs was performed similarly, except that streptavidin biosensors (ForteBio) were used for immobilization, along with three ADAM10 concentrations (1000 nM, 500 nM, 166 nM). An equal loading (i.e. optical thickness) of the biosensors was performed in both kinetic experiments.

[5] = target: T1, recombinant human ADAM10 (Biomatik, …); test: BLI (Octet RED384), biotin-labeled scFv on streptavidin biosensors, ADAM10 at 1000, 500 and 166 nM, global fit
Protocol: as §3, with “biotin-scFv-B2” for “scFv-B2”, “biotin-scFv-B7” for “scFv-B7”, “biotin-scFv-B9” for “scFv-B9”, “6.” for “5.”
as §4

[6] = target: T1, recombinant human ADAM10 (Biomatik, …); test: phage ELISA, ADAM10 signal over BSA signal; underrepresentation because OD was above the detectable limit
Protocol: as §1, §2

T2 sequence (P02769 25-607 limits assumed): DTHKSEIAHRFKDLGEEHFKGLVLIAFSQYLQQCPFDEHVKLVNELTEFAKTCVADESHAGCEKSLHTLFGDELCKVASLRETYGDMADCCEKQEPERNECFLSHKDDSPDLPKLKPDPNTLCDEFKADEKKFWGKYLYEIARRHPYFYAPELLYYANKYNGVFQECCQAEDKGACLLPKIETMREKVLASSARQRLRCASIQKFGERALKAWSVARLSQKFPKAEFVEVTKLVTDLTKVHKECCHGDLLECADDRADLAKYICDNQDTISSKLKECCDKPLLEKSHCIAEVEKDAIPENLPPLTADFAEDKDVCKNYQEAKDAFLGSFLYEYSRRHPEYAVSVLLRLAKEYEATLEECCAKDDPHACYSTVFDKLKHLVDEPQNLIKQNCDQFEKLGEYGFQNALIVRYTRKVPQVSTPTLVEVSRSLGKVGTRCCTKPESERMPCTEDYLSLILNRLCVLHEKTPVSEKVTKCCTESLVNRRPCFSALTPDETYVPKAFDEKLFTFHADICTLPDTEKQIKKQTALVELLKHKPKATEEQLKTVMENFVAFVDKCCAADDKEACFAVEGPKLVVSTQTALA

B1: scFv-B9 (scFv)
scFv: SDIQMTQSPSSLSASVGDRVTITCRASQGISNYLAWYQQKPGKAPKLLIYAASSLQSGVPSRFSGSRSGTDFTLTISSLQPEDFATYYCQQLYHPPLTFGQGTKVEIKGGGSGGGSGGGSGGGSEVQLVESGGGLVQPGGSLRLSCAASGFTFSSYGMHWVRQAPGKGLEWVAVISYDGSNKYYADSVKGRFTISRDNSKNTLYLQMNSLRAEDTAVYYCARYSPYHYSHSVSYYYYGFDVWGQGTLVTVSS
notes: Synthetic human scFv, order VL (IgKV1-16 framework) - (G3S)4 linker - VH (IgHV3-30 framework); Expressed in E. coli BL-21 and purified by protein L chromatography
B1 was tested, and the “Average fold signal over background” value [1] was 42.1 fold, the “Absorbance at O.D. 450 nm” value [2] was 0.075 OD 450 nm and the “Absorbance at O.D. 450 nm” value [3] was 0.082 OD 450 nm. It also gave a Kd [4] of 9.32 nM, a koff [4] of 0.000115 s⁻¹ and a kon [4] of 12400 M⁻¹ s⁻¹.

B2: biotin-scFv-B9 (scFv)
scFv: SDIQMTQSPSSLSASVGDRVTITCRASQGISNYLAWYQQKPGKAPKLLIYAASSLQSGVPSRFSGSRSGTDFTLTISSLQPEDFATYYCQQLYHPPLTFGQGTKVEIKGGGSGGGSGGGSGGGSEVQLVESGGGLVQPGGSLRLSCAASGFTFSSYGMHWVRQAPGKGLEWVAVISYDGSNKYYADSVKGRFTISRDNSKNTLYLQMNSLRAEDTAVYYCARYSPYHYSHSVSYYYYGFDVWGQGTLVTVSS
modifications: covalently labeled with biotin by N-hydroxysuccinamide amine coupling (EZ-link NHS biotin); labeled residues not stated
notes: held on streptavidin biosensors in the BLI experiments; also called biotin-labeled scFv-B9
B2 showed a Kd [5] of 23.1 nM, a koff [5] of 0.00117 s⁻¹ and a kon [5] of 50800 M⁻¹ s⁻¹.

B3: scFv-B2 (scFv)
scFv: SDIQMTQSPSSLSASVGDRVTITCRASQGISNYLAWYQQKPGKAPKLLIYAASSLQSGVPSRFSGSRSGTDFTLTISSLQPEDFATYYCQQSYYLPLTFGQGTKVEIKGGGSGGGSGGGSGGGSEVQLVESGGGLVQPGGSLRLSCAASGFTFSSYGMHWVRQAPGKGLEWVAVISYDGSNKYYADSVKGRFTISRDNSKNTLYLQMNSLRAEDTAVYYCARWPAHFSHSHSSYYYYGFDVWGQGTLVTVSS
notes: as for B1
B3 was tested, and the “Absorbance at O.D. 450 nm” value [2] was 0.096 OD 450 nm, the “Absorbance at O.D. 450 nm” value [3] was 0.079 OD 450 nm and the Kd [4] was 14.6 nM. The koff [4] was 0.000187 s⁻¹, the kon [4] was 12800 M⁻¹ s⁻¹ and the “Average fold signal over background” value [6] was over 45.7 fold.

B4: biotin-scFv-B2 (scFv)
scFv: SDIQMTQSPSSLSASVGDRVTITCRASQGISNYLAWYQQKPGKAPKLLIYAASSLQSGVPSRFSGSRSGTDFTLTISSLQPEDFATYYCQQSYYLPLTFGQGTKVEIKGGGSGGGSGGGSGGGSEVQLVESGGGLVQPGGSLRLSCAASGFTFSSYGMHWVRQAPGKGLEWVAVISYDGSNKYYADSVKGRFTISRDNSKNTLYLQMNSLRAEDTAVYYCARWPAHFSHSHSSYYYYGFDVWGQGTLVTVSS
modifications: covalently labeled with biotin by N-hydroxysuccinamide amine coupling (EZ-link NHS biotin); labeled residues not stated
notes: held on streptavidin biosensors in the BLI experiments; also called biotin-labeled scFv-B2
Work on B4 yielded a Kd [5] of 22 nM, a koff [5] of 0.00103 s⁻¹ and a kon [5] of 46800 M⁻¹ s⁻¹.

B5: scFv-B7 (scFv)
scFv: SDIQMTQSPSSLSASVGDRVTITCRASQGISNYLAWYQQKPGKAPKLLIYAASSLQSGVPSRFSGSRSGTDFTLTISSLQPEDFATYYCQQVSSWPLTFGQGTKVEIKGGGSGGGSGGGSGGGSEVQLVESGGGLVQPGGSLRLSCAASGFTFSSYGMHWVRQAPGKGLEWVAVISYDGSNKYYADSVKGRFTISRDNSKNTLYLQMNSLRAEDTAVYYCARYPPHGFDYWGQGTLVTVSS
notes: as for B1
With B5 the “Average fold signal over background” value [1] was 37 fold, the “Absorbance at O.D. 450 nm” value [2] was 0.084 OD 450 nm and the “Absorbance at O.D. 450 nm” value [3] was 0.086 OD 450 nm. The Kd [4] was 7.52 nM, the koff [4] was 9.3e-05 s⁻¹ and the kon [4] was 12400 M⁻¹ s⁻¹.

B6: biotin-scFv-B7 (scFv)
scFv: SDIQMTQSPSSLSASVGDRVTITCRASQGISNYLAWYQQKPGKAPKLLIYAASSLQSGVPSRFSGSRSGTDFTLTISSLQPEDFATYYCQQVSSWPLTFGQGTKVEIKGGGSGGGSGGGSGGGSEVQLVESGGGLVQPGGSLRLSCAASGFTFSSYGMHWVRQAPGKGLEWVAVISYDGSNKYYADSVKGRFTISRDNSKNTLYLQMNSLRAEDTAVYYCARYPPHGFDYWGQGTLVTVSS
modifications: covalently labeled with biotin by N-hydroxysuccinamide amine coupling (EZ-link NHS biotin); labeled residues not stated
notes: held on streptavidin biosensors in the BLI experiments; also called biotin-labeled scFv-B7
Binder B6 has a Kd [5] of 21 nM, a koff [5] of 0.00109 s⁻¹ and a kon [5] of 51900 M⁻¹ s⁻¹.
